The values that follow come from patent publication US20060057138A1 (published 2006).

Test [1] has as its target T1, recombinant human Tie1-Fc (Tie1 extracellular domain fused to human Fc) (human, UniProt P35590 25-759).
T1 construct: also called human Tie1-Fc fusion protein; not shown: human Fc
T1 sequence: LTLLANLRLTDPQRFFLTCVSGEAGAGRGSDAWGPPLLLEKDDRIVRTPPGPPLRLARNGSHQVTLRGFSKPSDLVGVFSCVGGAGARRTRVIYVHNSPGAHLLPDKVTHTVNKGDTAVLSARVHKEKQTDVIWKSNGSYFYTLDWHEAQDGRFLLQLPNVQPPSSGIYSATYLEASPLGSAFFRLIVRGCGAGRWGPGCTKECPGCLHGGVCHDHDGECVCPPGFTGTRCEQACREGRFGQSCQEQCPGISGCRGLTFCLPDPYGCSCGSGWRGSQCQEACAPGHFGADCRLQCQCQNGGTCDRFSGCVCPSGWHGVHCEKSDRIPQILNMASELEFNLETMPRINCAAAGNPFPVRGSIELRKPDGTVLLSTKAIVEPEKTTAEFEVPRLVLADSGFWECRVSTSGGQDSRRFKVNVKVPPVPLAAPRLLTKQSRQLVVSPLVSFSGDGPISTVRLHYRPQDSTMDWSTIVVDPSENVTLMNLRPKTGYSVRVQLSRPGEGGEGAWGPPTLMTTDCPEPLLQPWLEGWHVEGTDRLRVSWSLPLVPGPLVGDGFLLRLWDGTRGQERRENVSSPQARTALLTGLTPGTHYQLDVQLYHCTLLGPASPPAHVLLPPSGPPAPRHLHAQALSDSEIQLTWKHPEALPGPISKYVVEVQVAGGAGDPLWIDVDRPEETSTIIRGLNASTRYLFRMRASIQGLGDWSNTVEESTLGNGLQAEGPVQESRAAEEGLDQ
Put plainly: SPR (BIAcore 3000), CM5 chip; format of this row not stated. As to the method: (§1) Affinity analysis of the Fab and IgGs was performed using surface plasmon resonance using a BIAcore 3000 instrument. For this analysis both dimeric (Tie1-Fc fusion protein) and monomeric (Tie1-HIS) versions of the extracellular domain of the Tie1 were used. The sensor chips used in these experiments were CM5 (dextran-coated) which allow immobilization of proteins to the chip via standard amine coupling chemistries. The concentration of flowed antibody was determined using a surface plasmon resonance based method. Using a high-density protein A sensor chip, under mass transport limited conditions, the response signal is dependent only on the concentration of the antibody in the sample under test. This approach allows a precise determination of the antibody concentration, a parameter important for accurate determination of the KD.
470 RUs of Tie1 HIS protein were coated on a CM5 sensor chip and 5, 20, 100, and 500 nM of the Fab flowed over the chip at four different flow rates ([…]), rates in which the system is not mass transport limited. Kinetic data was typically determined using a range of analyte concentrations and three different chip coating densities. The data from the lowest coating density that gave a good signal was typically chosen, this was often in a range from 50-100 RUs. Using such low coating densities allowed the sensor curves to be fit using BIAEVALUATION™ 3.0 software to a 1:1 model, often even when using a bivalent analyte (IgG or Tie1-Fc fusion protein). For bivalent analytes, when fit to a 1:1 model was not possible, the curves were fit using a 2:1 model.

Test [2] concerns the target T2, recombinant mouse Tie1-Fc (mouse, UniProt Q06806 23-755).
T2 construct: extracellular domain; also called Mouse Tie 1-Fc antigen; mouse Tie1-Fc fusion protein; not shown: Fc
T2 sequence (looked up): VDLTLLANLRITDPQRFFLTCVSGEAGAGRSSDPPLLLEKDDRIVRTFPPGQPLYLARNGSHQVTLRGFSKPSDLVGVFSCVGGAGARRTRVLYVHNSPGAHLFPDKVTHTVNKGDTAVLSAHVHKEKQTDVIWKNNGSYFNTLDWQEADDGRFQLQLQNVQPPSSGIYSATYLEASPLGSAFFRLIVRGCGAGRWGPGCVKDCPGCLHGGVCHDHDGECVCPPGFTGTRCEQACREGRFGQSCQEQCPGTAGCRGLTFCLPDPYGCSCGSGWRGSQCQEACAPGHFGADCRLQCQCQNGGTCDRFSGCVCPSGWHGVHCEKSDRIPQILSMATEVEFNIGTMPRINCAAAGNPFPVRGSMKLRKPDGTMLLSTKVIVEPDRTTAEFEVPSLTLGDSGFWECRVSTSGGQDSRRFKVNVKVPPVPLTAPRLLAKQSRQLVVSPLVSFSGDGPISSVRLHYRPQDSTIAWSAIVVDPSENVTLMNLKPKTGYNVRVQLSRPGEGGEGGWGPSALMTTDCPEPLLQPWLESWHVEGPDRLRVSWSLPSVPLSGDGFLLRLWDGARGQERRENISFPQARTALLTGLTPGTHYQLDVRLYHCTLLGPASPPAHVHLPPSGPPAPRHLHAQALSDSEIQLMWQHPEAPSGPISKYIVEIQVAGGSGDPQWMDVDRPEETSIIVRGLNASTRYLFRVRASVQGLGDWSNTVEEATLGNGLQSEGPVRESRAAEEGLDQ
Put plainly: SPR, Tie1-Fc immobilized on the sensor chip, Fab as analyte. As to the method:
as §1

For test [3], the target named is T1, recombinant human Tie1-Fc (Tie1 …). The test is described as above. As to the method:
as §1

Test [4] has the same target. Put plainly: SPR, Tie1-Fc immobilized on CM5 sensor chip, bivalent anti-Tie1 as analyte. As to the method:
as §1

B1: parental E3 Fab (Fab, V domains shown)
VH: EVQLLESGGGLVQPGGSLRLSCAASGFTFSMYGMVWVRQAPGKGLEWVSVISPSGGNTGYADSVKGRFTISRDNSKNTLYLQVNSLRAEDTAVYYCARAPRGYSYGYYYWGQGTLVTVSS
VL: DIQMTQSPLSLSASVGDRVTITCRASQGIGHYLAWYQQKPGKVPKLLIYTASTLQSGVPSRFSGSGSGTDFTLTINSLQPEDVATYYCQQFNSYPHTFGQGTRLDIK
notes: also called E3 Fab parental; parental Fab E3
Turning to B1, in test [1], the Kd turned out to be 5.4 nM, the koff was found to be 4.47e-05 s⁻¹ and the kon was 8260 M⁻¹ s⁻¹.

B2: E3b Fab (heavy and light chain germlined E3 Fab) (Fab, V domains shown)
VH: EVQLLESGGGLVQPGGSLRLSCAASGFTFSMYGMVWVRQAPGKGLEWVSVISPSGGNTGYADSVKGRFTISRDNSKNTLYLQMNSLRAEDTAVYYCARAPRGYSYGYYYWGQGTLVTVSS
VL: DIQMTQSPSSLSASVGDRVTITCRASQGIGHYLAWYQQKPGKVPKLLIYTASTLQSGVPSRFSGSGSGTDFTLTISSLQPEDVATYYCQQFNSYPHTFGQGTRLEIK
notes: The germlined heavy variable domain is printed with limits only under DX-2240; also called Fab E3b; germlined (E3b)
For the molecule B2, the Kd in test [1] is 4.7 nM; in test [2], roughly 3 nM; in test [3] it was roughly 3 nM. The koff in test [1] came out at 4.41e-05 s⁻¹. The kon in test [1] stood at 9300 M⁻¹ s⁻¹.

B3: DX-2220 (full length, IgG1, germlined human anti-Tie1 antibody E3b) (antibody, V domains shown)
VH: EVQLLESGGGLVQPGGSLRLSCAASGFTFSMYGMVWVRQAPGKGLEWVSVISPSGGNTGYADSVKGRFTISRDNSKNTLYLQMNSLRAEDTAVYYCARAPRGYSYGYYYWGQGTLVTVSS
VL: DIQMTQSPSSLSASVGDRVTITCRASQGIGHYLAWYQQKPGKVPKLLIYTASTLQSGVPSRFSGSGSGTDFTLTISSLQPEDVATYYCQQFNSYPHTFGQGTRLEIKR
notes: also called E3b-IgG1; germlined E3b IgG1
Regarding B3, in test [1], the Kd amounted to 5.2 nM, the koff amounted to 3.67e-05 s⁻¹ and the kon worked out at 7090 M⁻¹ s⁻¹. Further, in test [4], the Kd amounted to 0.2 nM and the “fold increase in affinity against the anti-Tie1 Fab” value was greater than 10 fold.
